Test results reported in the Human Domainome abundance scans (Beltran et al. 2025).

B1: Retinoic acid receptor RXR-alpha, residues 132 to 208; numbered along this chain, P19793 (parent)
chain: KHICAICGDRSSGKHYGVYSCEGCKGFFKRTVRKDLTYTCRDNKDCLIDKRQRNRCQYCRYQKCLAMGMKREAVQEE
B2: Proto-oncogene vav, residues 782 to 842; numbered along this chain, P15498 (parent)
chain: KYFGTAKARYDFCARDRSELSLKEGDIIKILNKKGQQGWWRGEIYGRVGWFPANYVEEDYS

Variants of: B1
Experiment: abundance fitness (aPCA) (normalised: wild type 0, dead -1); higher = more abundant; growth selection in yeast, the domain comes from the species named
Conditions: Homo sapiens

Abundance fitness: each site, then its substitutions
H2: T -0.026; Q -0.031; Y -0.008; R -0.101; K 0.096; D 0.072; W -0.109; V -0.142; I 0.189; G -0.005; M 0.078; E 0.055; C -0.267; N -0.001; S 0.011; P -0.453; L -0.041
K1: S -0.299; E -0.117; W -0.341; N -0.024; H -0.222; Y -0.119; F -0.217; D -0.02; R -0.286; T -0.435; A -0.531; C -0.185; L -0.333; M -0.067; V -0.206
I3: K -0.144; T -0.008; V -0.3; S -0.127; C 0.022; R -0.218; A -0.229; Y -0.058; W -0.404; G -0.28; D -0.059; E -0.428; F -0.06; Q -0.211; N -0.001; L 0.009; H 0.017
C4: S -1.03; W -1.3; P -0.99; F -0.955; N -0.936; L -0.999; T -0.757; E -0.866; R -1.02; A -0.895; Q -0.614; H -0.512; V -1.03; K -1.23; M -1.08; G -0.914; Y -0.875; D -0.807

Variants of: B2
Experiment: as above
Conditions: Homo sapiens

Abundance fitness of substitutions, site by site:
Y60: V 0.134; D 0.106; W -0.169; A -0.079; E 0.005; R -0.005; I -0.024; K -0.122; G -0.039; H 0.027; M 0.009; C -0.119; S 0.016; Q -0.097; P -0.183; L 0.062; F 0.017
V56: N -0.807; L -0.616; Y -0.325; E -0.562; G -0.545; W -0.543; S -0.919; I -0.554; M -1.02; R -1.03; F -0.794; K -0.599; H -0.753; P -0.73; A -0.191; Q -1; C -0.452
S61: C 0.071; E -0.235; F -0.28; V -0.216; G -0.194; I -0.2; H 0.019; P 0.232; D -0.208; L -0.095; K -0.196; A -0.073; R -0.011; W -0.084
D59: E -0.038; N 0.052; M -0.027; C -0.125; F -0.015; W 0.048; A -0.188; Y -0.244; R -0.285; V -0.009; Q 0.01; H -0.109; G -0.097; P -0.371; L -0.138; T 0.008
E57: V -0.001; F -0.175; M -0.105; D -0.172; W -0.478; K -0.313; S -0.059; N -0.185; P -1.02; R -0.123; I -0.073; A -0.052; Q -0.109; H -0.424; C -0.284; L -0.194; T 0.025; Y -0.106
Y55: W -0.198; V -0.074
E58: L -0.225; A -0.186; P -0.169; Q -0.19; F -0.297; M -0.216; S -0.362; N -0.6; D -0.435; R -0.336; G -0.338; Y -0.065; H -0.533; V -0.117; T -0.129; W -0.364
